We go through one molecule from patent publication US20230295316A1.

The target in the assay is Nonhuman Primate CD123. The assay is described as follows: SPR (Biacore T-100), univalent affinity; antibody captured on the CM4 chip, nonhuman primate CD123 ECD as analyte. Background: SPR reads the build-up and loss of mass on a sensor chip optically.
Nonhuman Primate CD123, sequence (soluble extracellular domain with His and Avi tags, as listed by the source limits assumed, form in doubt): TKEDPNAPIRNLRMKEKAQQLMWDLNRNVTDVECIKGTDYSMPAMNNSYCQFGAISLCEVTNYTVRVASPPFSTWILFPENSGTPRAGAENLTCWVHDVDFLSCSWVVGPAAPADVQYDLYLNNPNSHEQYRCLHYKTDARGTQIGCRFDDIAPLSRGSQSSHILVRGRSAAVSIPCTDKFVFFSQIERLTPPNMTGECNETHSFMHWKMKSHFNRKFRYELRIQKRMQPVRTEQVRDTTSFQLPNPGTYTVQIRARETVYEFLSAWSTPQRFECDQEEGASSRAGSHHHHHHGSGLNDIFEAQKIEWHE

B1: 123-10C4 (murine anti-CD123 antibody, IgG2b isotype, Kappa Light Chain) (antibody, V domains shown)
VH: QVQLKESGPGLVAPSQNLSITCTVSGFSLTTYDINWIRQPPGKGLEWLGVIWTGGGTNYNSAFMSRLSISKDNSKSQVFLKMNSLQTDDTAMYYCVRGDTYHYALDFWGQGTSVTVSS
VL: DIVMSQSPSSLAVSAGEKVTMSCKSSQSLLSSGTRKNYLAWYQQKPGQSPKLLIYWASTRESGVPDRFTGSGSGTDFTLTISSVQAEDLAVYYCKQSYILFTFGSGTKLEIK
A word on the Kd: it is the constant that tells how readily two partners part at equilibrium. High values mean a looser complex, low ones a tighter complex. For orientation: koff means the first-order rate constant of dissociation. A higher koff goes with fast dissociation. Broadly, the kon is the rate constant with which the complex forms. A low value points to slow association. In turn, B1 displayed a Kd of 0.0161 µM, a koff of 0.0023 s⁻¹ and a kon of 143000 M⁻¹ s⁻¹.
